Laboratory results published in article PMC5473941.

Key:
[1] = molecular target: microtubules polymerised from tubulin (biotinylated, Alexa 647-labelled, taxol-stabilised) (UniProt P02550); assay: single-molecule TIRF microscopy; biotinylated, Alexa 647-labelled, taxol-stabilised microtubules held on PLL-PEG-biotin/streptavidin glass; TMR-dynein at 0.29 and 0.58 nM in TAB (25 mM HEPES pH 7.2, 5 mM MgSO4, 1 mM EGTA, 1 mM DTT) with α-casein, 25 mM KCl and MgATP; room temperature; Kd estimated as Koff (reciprocal of the dwell time) over Kon (binding rate) times 802 binding sites per μm
[2] = molecular target: human cytoplasmic dynein-1 heavy chain, wild type, as a subunit of the dynein complex (human) (UniProt Q14204); assay: electron microscopy of single particles; freshly purified protein produced in insect cells; how the proportion was counted is not told
[3] = molecular target: human cytoplasmic dynein-1 heavy chain, wild type, as a subunit of the dynein complex (human) (UniProt Q14204); assay: negative stain EM with 2D classification; dynein at about 0.05 mg/ml in GF150, uranyl acetate; particles sorted into phi, open or ambiguous classes; mean and SEM of 9 draws of 25 micrographs

| Substance | Kd [1] | percent of molecules in the phi-particle (motor domains self-dimerised) [2] | percent of molecules in the open form (motor domains apart) [3] | percent of molecules in the phi-particle (motor domains self-dimerised) [3] |
| --- | --- | --- | --- | --- |
| full-length human cytoplasmic dynein-1 complex with the phi-interface mutations K1610E and R1567E in the heavy chain (from UniProt Q14204 1-4646; Q13409 1-638; O43237 1-492; Q9NP97 1-96; P63167 1-89; P63172 1-113) | 5.22 µM | – | – | – |
| full-length human cytoplasmic dynein-1 complex, wild type (from UniProt Q14204 1-4646; Q13409 1-638; O43237 1-492; Q9NP97 1-96; P63167 1-89; P63172 1-113) | 16.4 µM | – | – | – |
| human cytoplasmic dynein-1 heavy chain, wild type, as a subunit of the dynein complex, Q14204 1-4646 | – | > 85% | 22% | 75% |
